Measured values published in patent US20040043401A1.

Molecular target: human prostate-specific membrane antigen (PSMA) (human) (UniProt Q04609)
Assay: cell-based or functional assay
Conditions: for IL-2 content normalized for gene transfer efficiency, transduced PBLs on NIH3T3 feeder expressing PSMA + B7.1: scale: pg/ml divided by percentage transduced cells

human prostate-specific membrane antigen (PSMA) (human), sequence (Q04609 whole entry): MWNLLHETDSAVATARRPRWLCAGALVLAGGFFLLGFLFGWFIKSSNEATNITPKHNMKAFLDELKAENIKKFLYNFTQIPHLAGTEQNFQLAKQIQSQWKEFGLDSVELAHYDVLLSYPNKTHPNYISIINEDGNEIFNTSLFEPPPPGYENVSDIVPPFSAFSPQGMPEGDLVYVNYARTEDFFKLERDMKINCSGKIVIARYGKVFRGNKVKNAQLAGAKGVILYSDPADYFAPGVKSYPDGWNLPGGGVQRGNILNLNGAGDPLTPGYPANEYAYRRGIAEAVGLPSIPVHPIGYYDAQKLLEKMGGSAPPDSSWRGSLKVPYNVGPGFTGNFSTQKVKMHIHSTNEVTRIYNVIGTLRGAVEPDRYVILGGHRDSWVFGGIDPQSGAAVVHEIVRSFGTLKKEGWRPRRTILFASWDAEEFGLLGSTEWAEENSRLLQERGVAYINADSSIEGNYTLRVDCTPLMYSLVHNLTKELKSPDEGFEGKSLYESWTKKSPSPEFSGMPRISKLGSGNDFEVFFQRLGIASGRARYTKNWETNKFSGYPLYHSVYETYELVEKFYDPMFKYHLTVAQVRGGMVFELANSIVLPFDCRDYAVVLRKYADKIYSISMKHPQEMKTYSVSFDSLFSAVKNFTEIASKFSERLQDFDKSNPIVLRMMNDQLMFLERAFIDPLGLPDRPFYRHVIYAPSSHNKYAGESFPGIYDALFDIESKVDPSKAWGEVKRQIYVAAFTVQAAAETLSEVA
P28 fusion receptor (J591 scFv fused to human CD28), sequence (P10747 114-220): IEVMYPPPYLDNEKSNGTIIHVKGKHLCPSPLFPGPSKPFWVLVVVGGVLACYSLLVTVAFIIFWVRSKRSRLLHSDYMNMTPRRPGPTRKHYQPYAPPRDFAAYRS

Substance	IL-2 concentration in supernatant (ELISA, 24 h), transduced PBLs on NIH3T3 feeder expressing PSMA	IL-2 concentration in supernatant (ELISA, 24 h), transduced PBLs on NIH3T3 feeder expressing PSMA + B7.1	IL-2 content normalized for gene transfer efficiency, transduced PBLs on NIH3T3 feeder expressing PSMA + B7.1
P28 fusion receptor (J591 scFv fused to human CD28) (from UniProt P10747 114-220)	< 50 pg/mL	< 50 pg/mL	–
Pz1 fusion receptor (J591 scFv - human CD8 alpha hinge and transmembrane - intracellular domain of human TCR zeta) (from UniProt P01732 137-209)	< 50 pg/mL	164000 pg/mL	3280
Pz28 fusion receptor (Pz1 with the 41 amino acid intracellular domain of human CD28 at its C-terminus) (from UniProt P01732 137-209)	< 50 pg/mL	29700 pg/mL	958
